# Source: PMC11198818, “Positive charges promote the recognition of proteins by the chaperone SlyD from Escherichia coli” (PLOS ONE, 2024)
# Numbering of substitutions follows the chain as printed.
# T1: SlyD E89A, C-terminally hexahistidine-tagged (E. coli, UniProt P0A9K9 1-196, E89A)
# T1 construct: FKBP-type peptidyl-prolyl cis-trans isomerase SlyD, E. coli; the tag is fused to the C-terminal domain; not shown: His6, C-terminal, kept
# T1 sequence: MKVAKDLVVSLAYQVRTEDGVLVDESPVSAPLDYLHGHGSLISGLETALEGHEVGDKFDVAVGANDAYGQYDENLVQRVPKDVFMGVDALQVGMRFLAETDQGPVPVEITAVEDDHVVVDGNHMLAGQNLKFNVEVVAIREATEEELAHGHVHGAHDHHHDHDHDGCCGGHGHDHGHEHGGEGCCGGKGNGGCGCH
# T2: SlyD F84N, C-terminally hexahistidine-tagged (E. coli, UniProt P0A9K9 1-196, F84N)
# T2 construct: FKBP-type peptidyl-prolyl cis-trans isomerase SlyD, E. coli; the tag is fused to the C-terminal domain; not shown: His6, C-terminal, kept
# T2 sequence: T1 sequence with F84N, A89E
# T3: SlyD from Escherichia coli, C-terminally hexahistidine-tagged, wild type (E. coli, UniProt P0A9K9 1-196)
# T3 construct: FKBP-type peptidyl-prolyl cis-trans isomerase SlyD, E. coli; the tag is fused to the C-terminal domain; also called WT; wt; not shown: His6, C-terminal, kept
# T3 sequence: T1 sequence with A89E
# T4: SlyD F96A, C-terminally hexahistidine-tagged (E. coli, UniProt P0A9K9 1-196, F96A)
# T4 construct: FKBP-type peptidyl-prolyl cis-trans isomerase SlyD, E. coli; the tag is fused to the C-terminal domain; not shown: His6, C-terminal, kept
# T4 sequence: T1 sequence with A89E, F96A
# T5: SlyD F84A, C-terminally hexahistidine-tagged (E. coli, UniProt P0A9K9 1-196, F84A)
# T5 construct: FKBP-type peptidyl-prolyl cis-trans isomerase SlyD, E. coli; the tag is fused to the C-terminal domain; not shown: His6, C-terminal, kept
# T5 sequence: T1 sequence with F84A, A89E
# T6: SlyD F96G, C-terminally hexahistidine-tagged (E. coli, UniProt P0A9K9 1-196, F96G)
# T6 construct: FKBP-type peptidyl-prolyl cis-trans isomerase SlyD, E. coli; the tag is fused to the C-terminal domain; not shown: His6, C-terminal, kept
# T6 sequence: T1 sequence with A89E, F96G
# B1: HiPIP precursor (RR-HiPIP) from Allochromatium vinosum (natural protein)
# chain: MSDKPISKSRRDAVKVMLGTAAAIPMINLVGFGTARASAPANAVAADDATAIALKYNQDATKSERVAAARPGLPPEEQHCANCQFMQADAAGATDEWKGCQLFPGKLINVNGWCASWTLKAG
# modifications: HiPIP precursor; fully folded, [4Fe-4S] cluster presumed; signal peptide retained
# What was measured:
# Assay in all cases: ITC; VP-ITC (MicroCal), 30°C, 10 mM potassium phosphate buffer pH 7.6 or 7.8; SlyD or its variant 30 uM in the calorimetric cell, HiPIP precursor (RR-HiPIP) injected: 100 uM, 2x 22 injections of 10 uL (Fig 4); 200 uM, 23 injections of 10 uL (Fig 3)
# Conditions in all cases: both partners purified
# [1] = biological target: T1, SlyD E89A, C-terminally …
# [2] = biological target: T2, SlyD F84N, C-terminally …
# [3] = biological target: T3, SlyD from Escherichia coli, …
# [4] = biological target: T4, SlyD F96A, C-terminally …
# [5] = biological target: T5, SlyD F84A, C-terminally …
# [6] = biological target: T6, SlyD F96G, C-terminally …
binder,measurement,setting,value
B1,Kd,[1],0.38 ± 0.04 µM
same,stoichiometry N,[1],0.404 ± 0.004
same,Kd,[2],6.62 ± 0.2 µM
same,stoichiometry N,[2],0.532 ± 0.004
same,stoichiometry N,[3],0.71 ± 0.002
same,Kd,[4],4.88 ± 0.54 µM
same,stoichiometry N,[4],0.66 ± 0.013
same,stoichiometry N,[5],0.766 ± 0.011
same,Kd,[6],5.65 ± 0.3 µM
same,stoichiometry N,[6],0.575 ± 0.007
